Assay: yeast display, Sf9 membrane polyspecificity reagent, FACS + sequencing; frameworks hold sequencing errors
Procedure, shortened: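 Galactose induction of a Saccharomyces cerevisiae BJ5465 synthetic nanobody display library ran 36–48 hours. The cells were then stained for 1 hour at 4 °C with 10% biotinylated, detergent-solubilized Sf9 membrane reagent, pulled down on streptavidin microbeads and FACS-sorted into low and high (top ~1%) gates on expression and reagent-binding fluorescence. Labels for polyreactivity follow the gate of origin.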

Sequence	polyreactivity (PSR sort gate)
QVQLVESGGGLVQAGGSLRLSCAASGYIFLAYAMGWYRQAPGKERELVADNTYADSVKGRFTISRDNAKNTVYLQMNSLKPEDPAVYYCNADEVYDEYSYDYWGQGTQVTVSS	low polyreactivity
QVQLVESGGGLVQAGGSLRLSCAASGSIFRRYTMGWYRQAPRKERELVAAISRVGNTNYADSVKGRFTISRDNAKNTVYLQLNSLKPEDTAVYYCAARGIGYRYTPGLNYWGQGTQVTVSS	high polyreactivity
QVQLVESGGGLVQAGGSLRLSCAASGLTFKDNVMGWYRQAPGKERELVAAISSSGGSTYYADSVKGRFTLSRDNAKNTVYLQMNSLKPEDTAVYYCAAPTFSRYYYWGQGTQVTVSS	high polyreactivity
QVQLVESGVGLVQAGGSLRLSCAASGSIFPPYAMGWYRQAPGKERELVAAITSGGRTNYADSVKGRFTISRDNAKNTVYLQMNSLKPEDTEVYYCAQTGSYAKIRPNNDYWGQGTQVTVSS	low polyreactivity
QVQLVASGGGLVQSGGSLRLSCASSGSTFFRYAMGWYRHAPGKERELVAAISWSGGPTYYADSVKGRFTISRDNAKNTVFLQMNSLKPQDTAVYYCNAVRQGHILDYWGQGSQVTVSS	low polyreactivity
QVQLVESGGGLVQAGGSLRLSCAASGSISIRNAMGWYRQAPGTERELVAAITYSGGSTYYADSVKGRFTISRDNAKNTVYLQLNRLKPEDTAVYYCAKDHYRFRYDYWGQGTQVTVSS	low polyreactivity
QVQLVESGGGLVQAGGSLRLSCAASGTITSYAMGWYRQAPGKERELVASIRYRGGSTYYADSVKGRFTISRDNAKNTVYLQMNSLKPEDTAVYYCAADNFAPEFYYWGQGTQVTVSS	low polyreactivity
QVQLVESGGGLVQAGGSLRLSCAHSGSIFGQNAMGWYRHAPGKVRELVAAIRVSGGSTYYADSVKGRFTISRDNAKNTVYLQMNSLKPEDTAGYYCNARYRGYDGPITHGVTSYYWGQGTQVTVSS	low polyreactivity
QVQLVESGGGLVQAGGSLRLSCAASVRISVFNAMGWYRKPPGKESELVAGISNGGSTNYADSVKGRFTISRDNAKNTVYLQMNSLKPEDTAVYYCANDEPKVCRAFDYWGQGTQVTVSS	low polyreactivity
QVQLVESGGGLVQAGGSLRLICAASGFTFYRYAMGWYRQAPGKERELVAAITRSGGSTYYADSVKGRFTISRDNAKNTVYLQMNSLKPEDTAVYYCARTYWITNSKFRDYLGAYGGDYWGQGTQVTVSS	high polyreactivity
QVQVVESGGGLVQAGGSLRLSCAASGLISWLYVMGWYRQAPGKERELVAAIRYSGGRTYYADSVKGRFTISRDNAKNTDYLQMHSLKPEDTAVYYCNALPWALYDSTSIYYYWGQGTQVTVSS	low polyreactivity
QVQLVESGGGLVQAGGSLRLSCAASGLTFWYYAMGRYRHAPRKERELVATITWSGRTYYADSVKGRFTISRDNAKNTVYLQMNSLKTEDTAVYYCNAVKGRLQYSYDYWGQGTQVTVSS	high polyreactivity
QVQLVESGGGLVQAGGSLRLSCAASGITFGSYAMGWYRQAPGKERELVAAISRSGGSTYYADSVKGRFTISRDNEKNTVYLQMNSLKPEDTAVYYCAVRYVYYREGDYWGQGTQVTVSS	high polyreactivity
QVQLVESGGGLVQAGGSLRLSCAASPLTFRYYDMGWYRQAPGKERELVAAISRTGRTNYADSVKGRFTISRDNAKNTVYVQMNSLKPEDTAVYYCAATGIYAKALLWYDYWGQGTQVTVSS	high polyreactivity
QVQLVESGGGLVQAGGSLRLSCAASGIIFGFYAMGWYRQAPGKERELVAAITIDGSTYYADSVKGRFTISRDNAKTTVYLQMNILKPEDTAVYYCGAQYLNVYYWEDYLGQGTQVTVSS	low polyreactivity
QVQLVESGGGLVQAGGSLRISCAASGFTFVSNDMGWYRQAPGKERELVAAISQGGGSTYYADSVKGRFTISRDNAKNTVYLQMNSLKPEDTAVYYCAADIWARYYFWGFEHDYWGQGTQVTVSS	low polyreactivity

Sequence	polyreactivity (PSR sort gate)
QVQLVESAGGLVQAGGSLRLSCAASGIIFGQNAMGWYRQAPGKDRELVAAITISGGSTYYADSVKGRFTISRDNAKNTVYLQMNSLKPEVTAVYYCAARRVTWKDIAGGYRYGYWGQGTQVTVSS	low polyreactivity
QVQLVESGGGLVQAGGSLRLSCASSGRIFGLYAMGWYRHAPGKERELVAAITLSGDGTDYADSVKGRFTISRDNAKNTVYLQMNSLKPEDTAVYYCAKVGQYWWNMDYWGQGTQVTVSS	low polyreactivity
QVQLVESGGGLVQAGGSLRLSCAASGTTFDYYAMGWYRQAPGKERELVAVISSSGGSTYYADSVKGRFTISRDNAKNTVYLQMNSLKPEDTAVYYCAALYRNYGSSYAYYYWGQGTQVTVSS	low polyreactivity
QVQLVESGGGLVQAGGSLRLSCAASGSTFVKYAMGWYRQAPGKERELVAVISSAGSTNYADSVKGRFTISRDNAKNTVYLQMNSLKPEDTAVYYCNAEPTTPYWDYWAYEDDYWGQGTQVTVSS	low polyreactivity
QVQLVESGGGLVQAGGSLRLSCAASGSTFYPYAMGWYRQAPGKERELVAAINWSGGTTYYADSVKGRFTLSRDNAKNTVYLQMNSLKPEDTAVYYCAAVGYPPGYGYWGQGTQVTVSS	low polyreactivity
QVQLVESGGGLVQAGGSLRLSCAASGHTFLEYAMGWYRQAPGKESELVASISFSAGSTYYADSVKGRFTISRDNAKNTVYLQLNSLKPEDTALYYCNAEYLYDYYYYWPYWFEFDYWGQGTQVTVSS	high polyreactivity
QVQLVESGGGLVQAGGSLRLSCAASGFTFRVNAMGWYRQAPGKERELVARISSSGGITYYADSVKGRFTISRDNAKNTVYLQMNSLKPEDTAVYYCAKEVYSGYSTRARSRYYEYYYWGQGTQVTVSS	high polyreactivity
QVQLLESGGGLVQAGGSLRLSCAASGSTFGYYTMGWYRQAPGKERVLVAGISSGGSTNYADSVKGRFTISRDNAKNTVYLQMNSLKQEDTAVYYCDTGSYSYHRGYVTYARFGYWGQGTQVTVSS	low polyreactivity
QVQLVESGGGLVQAGGSLRLSCAASGRTFPTNMGWYRQAPGKERELVATITGGGGSTIYADSVKGRFTISRDNAKNTVYLQMNSLKPEDTAVYYCAKTLSPEGVPYDYWGQGTQVTVSS	low polyreactivity
QVQLVESGGGLVQAGGSLRLSCAASGITFSSYAMGWYRQAPGKERELVAAISYGGGNTYYADSVKGRFTISRDNAKNTVYLQMNSLKPEDTAVYYCNTLYTSYSGLDYWGQGTQVTVSS	high polyreactivity
QVHLVESGGGLVQAGGSLRLSCAASGLPFSQNAMGWNRQAPGKERELVAAINTSDDSTYYADSVKGRFTISRDNAKNTVYLQMNSLKPEDTAVYDCAVDGYWYGGIFYYWGQGTQVTVSS	low polyreactivity
QVQLVDSGGGLVQAGGSLRLSCAASGFNFVFNAMGWYRQAPGKERELVAAINGGDITNYADSVKGRFTISRDNAKNTVYLQMNSLKPEDTAVYYCAADGEYSLWTGYDYDYWGQGTQVTVSS	low polyreactivity
QVQLVESGGGLVQAGGSLRLSCAASGSTFGTYAMGWYRQAPGKERELVAAISSGDSTTYADSVKGRFTISRDNAKNTVYLQMNSLKPEDTAVYYCAARTFLMRNGGYNYWGQGTQVTVSS	low polyreactivity
QVQLVESGGGLVQAGGSLRLSCAASGFTFYTYAMGWYRQAPGKERELVAAINRSGGRTFYADSVKGRFTISRDNAKNTDYLQMNSLKPEDTAVYYCAADSRPYVGGMDYWGQGTQVTVSS	high polyreactivity
QVKLVESGRGLVQAGGSLRLSCAASGSIFAQNVMGWYRQAPGKERELVAAISYSGGTTYYADSVKGRFTISRDNAQNTVYLQMNSLKPEDTAVYYCAAEFGVYEYDYWGQGTQVTVSS	low polyreactivity
QVQLQESGGGLVQAGGDLRLSCAASGKILRDYIMGWYRQASGKEREFVAGIDRGANTNYADSVKGRLTISRDNAKKTVYLQMNSLKPEDTAVYYCAVHTAIVPDFIYWGQGTQVTVSS	low polyreactivity

Source: the nanobody polyreactivity screen of Harvey et al. (2022)
